The nanobody polyreactivity screen of Harvey et al. (2022)

Test: yeast display, Sf9 membrane polyspecificity reagent, FACS + sequencing; frameworks hold sequencing errors
Method in brief: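 A synthetic nanobody library was expressed on Saccharomyces cerevisiae BJ5465 by galactose induction for 36–48 hours. The library was stained for 1 hour at 4 °C with 10% biotinylated, detergent-solubilized Sf9 membrane reagent and enriched with streptavidin microbeads before FACS. Low and high (top ~1%) gates were set on anti-HA fluorescence for expression and streptavidin fluorescence for reagent binding, and each polyreactivity label reflects the gate of origin.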

Sequence	polyreactivity (PSR sort gate)
QVQLVESGAGLFQAGGSLRLSCAASGRIFNQYGMAWYRQAPGKERELVAAIRSGDSTNYADSVKGRFTISRDNAKNTVFLQMNSLKPEVTAVYYCARDRPGDYDGYDYCGQGTQVTVSS	low polyreactivity
QVQLVESGAGLFQAGGSLRLSCAASGRTFVKNAMAWYRQAPGKERELVAAISTSGGRTYYADSVKGRFTISRDNAKKTVYLQMNSLKPEDTAVYYCGAVLYATRPVYGFDSCGQGTQVTVSS	high polyreactivity
QVQLVESGAGLVEAGASLRLSCAASGSNFRINAMGLYRQAPGKERELVAAITASGGSTYADSVKGRFTISRDNAKNTVYLQMNSLKPEDTAVYDCAARYFPRHRYYFWGQVTQVTVSS	high polyreactivity
QVQLVESGAGLVHAGGSLRLSCAASGSIFEGYAMGWYRQAPGKERELVARITSDDDSTYYADSVKGRFTNSRDTAKNTVYLQMYSLKPEDTAVFYCNADYYWTTLAMDSWGQGTQVTVSS	low polyreactivity
QVQLVESGAGLVHAGGSLRLSCASSGRTFAKYAMGWYRQAPGKERELVAAISGRSGSTYYADSVKGRFTISRDNPKNTVYLQMNSLKPEDTAVYYCAASGGSRYDWVQGTQVTVSS	high polyreactivity
QVQLVESGAGLVMAGGSLRLSCAASGRTISIYAMGWYRQAPGKERQLVAAISQSSSITYYADSVKGRFTLSRDNANNTVYLQMISLKPEDTACYYCNAVVLRYQGSWLEYWGQGTQVTVSS	low polyreactivity
QVQLVESGAGLVQAGCRLRLSCASSGIIFSPNAIGWYRQAPGKERELVAAISKRGGSTYYADSVKGRFTISRDNAKNTVYLQLHSLKQEDTAVYYCAKRQQQSSGYDYWGQGTQVTVSS	high polyreactivity
QVQLVESGAGLVQAGGRLRLRCDASGFIFRYYAMGWYRQAPGKERELVAAISESGASTYYADSVKGRFTISRDNAKNTVYLQMNSLKPEDTAVYYCAAKPRKSGPYYFYDLNYWGQGTQVTVSS	high polyreactivity
QVQLVESGAGLVQAGGRLRLSCADSGYIFKSYAIGWYRQAPGKEREFVAAISWSGGSTYADSVKGRFTISRDNAKNTVYLQMNSLKPEDTAVYSCAAVDYYYYGVYSSWYEYWGQGTQVTVSS	low polyreactivity
QVQLVESGAGLVQAGGRLRLSCAPSGSTFIYNAMGWYRQAPGKERELVASITGGTSTNYADSVKGRFTISRDNAKNTVYLQMNSLKPEDTAVYYCAAVWVWGEYDYWGQGTQVTVSS	low polyreactivity
QVQLVESGAGLVQAGGSLRLSCAASGFIFVKYVMGWYRQAPGKERELDATITNGVSTNYADSVKGRFTISRDNAKNTVYLQMNSLKPEDTAVYYCNTGSTAWYFSGDYWGQGTQVTVSS	low polyreactivity
QVQLVESGAGLVQAGGSLRLSCAASGFTFKSNAMGWYRQAPGKERELVATISWGGASTSYADSVKGRFTISRDNAKNNVYLQMNSLKPEDTAVYYCKVRAQRRHGGYDHWGLGTQVTVSS	low polyreactivity
QVQLVESGAGLVQAGGSLRLSCAASGIIFASNAMGWYRQAPGKERELLATINWTDSSTYYADSVKGRFTISRDNAKNTVYLQMNSLKPEDTAVYYCNAVPHWFYRYGRYDYWGQGTQVTVSS	low polyreactivity
QVQLVESGAGLVQAGGSLRLSCAASGIIFTDYAMGWYRQAPGKERELVAANSSGGGSTYYADSVKGRFTISRDNAKNSVYLQLNSLKPDDTAVYDCAAQSSGSYGFDHWGQGTQVTVSS	high polyreactivity
QVQLVESGAGLVQAGGSLRLSCAASGRIFQYNAMGWYRQAPGKERELVAAISYSTTRTYYAESVKSRFTISRDNAKITVYLQMKSLKPEVSGVYYCAARGYFWSSYKYDYWGLGTQVTVSS	high polyreactivity
QVQLVESGAGLVQAGGSLRLSCAASGRIFVYNTMGWYRQAPGKEREFVAAITRSGGSTTYADSVKGRFTISRANAKNTVYLQRNSLKPEDTAVYYCAAGPFISYWVSRFGYWGQGTQVTVSS	high polyreactivity
QVQLVESGAGLVQAGGSLRLSCAASGRTFFVNAMGWYRQAPGKERELVATITFSGDSTYYADSVKGRFTISRDNAKNTVFLQMNSLKPEDTAVYYCAARTGYGYTRYEYWGQGTQVTVSS	high polyreactivity
QVQLVESGAGLVQAGGSLRLSCAASGRTFSRNAMGWYRQPPGKERELVATISRGGGITFYADSVKGRYTISRDNAKNTVYLQMNSLKPEDTAVYYCNADVRYVGLRRIVDYWGQGTQVTVSS	high polyreactivity
QVQLVESGAGLVQAGGSLRLSCAASGRTLTYNAMGWYRQAPGKEREFVAAISVGGGSTYADSVKGRFTISRDNAKNTVYLQMNRLKPEDTAVYYCAAAYTKLYYYWGQGTQVTVSS	low polyreactivity
QVQLVESGAGLVQAGGSLRLSCAASGSIINRNAMGGYRQAPGKERELVAAITRRGGSTYYADSVKGRFTISRDNAKNTVYLQKYSLKPEDTAVYYCNAVKALSSWSYEYWGQGTQGTVSS	high polyreactivity
QVQLVESGAGLVQAGGSLRLSCAASGSSSLYNAMGWYRQAPGKERELVAAISSGGSTNYADSVKGRFTISRENAKNNVYLQMNSLQPEDTAVYYCAAVTVRRVSCAQYKQYDYWGLGTQVTVSS	high polyreactivity

Sequence	polyreactivity (PSR sort gate)
QVQLVESGAGLVQAGGSLRLSCAASGSTFESNTMGWYRQAPGKERELVAAISYSGGRTYYADSVKGRFTISRDNAKNTVYLQMNSLKPEDTAVYYCNADLYPYYWYTTGEFGYWGQGTQVTVSS	high polyreactivity
QVQLVESGAGLVQAGGSLRLSCAASGSTFKPNVMGWYRQAPGKERELVAAITSTDDRTYYADSVKGRFTISRDNAKNTVYLQMNSLKPEDTAVYYCAVESLRDDFEYDYWGQGTQVTVSS	low polyreactivity
QVQLVESGAGLVQAGGSLRLSCAASGSTFYMYAMGWDRTATGKERELLADISLSGVSTYYADSVKGRFTFSRDNAKHTVYLQMNSLKPEDTAVYYCAADVFYPGPWSYEYWGQGTHVTVSS	low polyreactivity
QVQLVESGAGLVQAGGSLRLSCAASGSTLVTNAMGWYRQAPGKERELVAAITFSGGTTYYADSVKGRFTISRDNAKNTVYLQMNSLKPEDTAVYYCAAEIWLEYVGYDYWGQGTQVTVSS	high polyreactivity
QVQLVESGAGLVQAGGSLRLSCAASGYIFYKNAMGWYRQAPGKERELVAAISTRGGSTYYADSVKGRFTISRDNAQNTVYLHMNSLKPEDTAVNYCAASQNRRDWGQGTQVTVSS	high polyreactivity
QVQLVESGAGLVQAGGSLRLSCAASGYTFSPNDMGWYRQAPGKERELVAAITSSVGSTYYADSVKGRFTISRDNAKNTVYLQMNSLKPEDTAVYYCNKQDSSYYISGGGDYDYWGQGTQVTVSS	low polyreactivity
QVQLVESGAGLVQAGGSLRLSCAASVSTLDLYAMGWYRQAPGKERELVAYISWSGGSTYYADSVKGRFTISRDNAKNTVYLQMNSLKPEDTAVYYCAAGNITPYRYYHGYYQSIYDYWGQGTQVTVSS	low polyreactivity
QVQLVESGAGLVQAGGSLRLSCAAYGRIFGIYALGWYRQAPGKEREFVAAISDRSGSRTYYADSVKGRFTISRDNAKNTVYLQINSLKPEDTAVYYCAAGILRWKDRWFEYWGQGTQVTVSS	high polyreactivity
QVQLVESGAGLVQAGGSLRLSCAPSGRIFEYNAMGWYRQAPGKESELVAAIRSGGGSTYYADSVKGRFTISRDNAKNTVYLQMNSLNPEDTAVYYCAARRKRVSFYAEYDYWGQGTQVTVSS	low polyreactivity
QVQLVESGAGLVQAGGSLRLSCDASGLIFAGYAMGWYRQAPGTERELVAAITWRGGRTYADSVKGRFTISRDNAKNTVYLQINSLKPEDTAVYYCNKDPWYVFHPRGQFLFDYWGQGTQVTVSS	low polyreactivity
QVQLVESGAGLVQAGGSLRLSCSAYGFIFGFYAMGWSRQAPGKERELVADITSSGGSTYYADSVKGRFTLSRDNAKNTVYLQMNSLKPEDTAVYYCAADGWWHNFYPGNGLDYWGQGTQVTVSS	low polyreactivity
QVQLVESGAGLVQAGGSLRLSFAASGRTFVSYDMGWYRQATGKERELVAAITYSGGSSTYYADSVKGRFTISRDNAKNTVYLQMNSLKPEDTAVYYCAVYGGGSRNFGDVGYWGQGTLVTVSS	low polyreactivity
QVQLVESGAGLVQAGGSLRLTCAASGSTFLDMGLYRQAPAKEREFVASISLSGGSTYYADSVKGRFTISRDNAKNTVYLQMNSLKPEDTAVYYCNAEAWWYFWFDYWGQGTQVTVSS	low polyreactivity
QVQLVESGARIVQAGGSLRLSCAAYGSTFGRYGMGWYRQAPGKERELVAAISRAGGTNYADSVKGRITISRDNAKNTVYLQMNSLKPEDTAVYYCNARWYYVLYDYWGQGTQVTVSS	low polyreactivity
QVQLVESGARLVQAGGSLRLSCAASGRTVAYNAMGWSREAAGKEREVDPAISRRGGSTYYADSVKGRFTISRDNAKNTVNLQMNSLKPEDTAVYYCASRRLRRASSLDYWGQGSQVTVSS	high polyreactivity
QVQLVESGARLVQAVGSLRLSCAASARILTFNAMGWYRQAPGKEREVVASITSDVSTYYADSVKGRFTISRDNAKTTVYLQMNSLKPEDTAVYYCAADGWYTYVGRLDYWRQGTQVTVSS	low polyreactivity
QVQLVESGGALDQAGGSLRLSCAASGSTFISNAMGWYRQAPGKERELVAAISSGGGRTSYADSVKGRFTISRDNANNTVYLQMNSLKPEDTAVYYCNTKKLPYAEGYWGQGTQVTVSS	low polyreactivity
QVQLVESGGALFQAGGSLRLSCAASGIIFGVYAMGWYRQAPVKERELVASITWGGGSTYYADSVKGRFTISRDNAKNTVYLQMNSLKPEDTAVYYCNKRGYPGYDWGQGTQVTVSS	low polyreactivity
QVQLVESGGALLQAGGSLRLSCAASGSIFRFYAMGWYRQAPGKERELVARISGGGTTNYADSVKGRFTISRDNAKYTVYLQKNSQKPDDTAVYYCAAGCLYLPIWYPRWRYEYWGQGTQVTVSS	low polyreactivity
QVQLVESGGALVQAAGSLRLSCAASGRTFRRNTMGWYRQAPGKERELVAAISSSGSSTYYADSVKGRFTISRDNEKNTVYLQMNSLKPEDTAVYYCAATGSRRFGYWGQGTQVTVSS	high polyreactivity
